Legend:
[1] = target: the molecule itself; assay: crystal structure; selenomethionine-substituted crystals grown at 4°C in 2.8 M sodium formate, protein 1.2 mg/mL, stoichiometric addition of the DNA oligomer hTel12 (not visible in the model); SAD, 1.9 Å
[2] = target: the molecule itself; assay: crystal structure; native crystals grown at 21°C, hanging drop, protein 2.2 mg/ml, 100 mM HEPES (pH 7.2), 20% PEG 3350; molecular replacement, 2.2 Å
Pur-alpha 56-287 (C272S) [3] = target: T1, Pur-alpha 56-287 (C272S) (human, UniProt Q00577 56-287, C272S); assay: filter binding; replicates 491, 438, 306; 2.5 mM MgCl2; 100 mM NaCl, 10 mM HEPES pH 8.0, 2.5 mM MgCl2, 1 mM DTT; 0.5 nM labeled oligo, 0-10 uM protein, 20 min, room temperature; details: protein: recombinant; tags: GST removed by protease (tag cleaved); chain copies: 2; label: 5'-32P; single strand
T1 sequence: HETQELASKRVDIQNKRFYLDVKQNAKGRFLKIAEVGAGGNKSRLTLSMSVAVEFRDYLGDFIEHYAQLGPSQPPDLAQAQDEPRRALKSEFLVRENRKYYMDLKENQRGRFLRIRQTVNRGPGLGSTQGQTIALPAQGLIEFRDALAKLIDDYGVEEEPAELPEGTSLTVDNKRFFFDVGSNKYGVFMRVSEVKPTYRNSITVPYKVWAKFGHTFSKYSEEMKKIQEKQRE

Pur-alpha 56-287 (C272S) [4] = target: T1, Pur-alpha 56-287 (C272S); assay: filter binding; replicates 207, 258; 2.5 mM MgCl2; 100 mM NaCl, 10 mM HEPES pH 8.0, 2.5 mM MgCl2, 1 mM DTT; 0.5 nM labeled oligo, 0-10 uM protein, 20 min, room temperature; details: protein: recombinant; tags: GST removed by protease (tag cleaved); chain copies: 2; label: 5'-32P; single strand
Pur-alpha 56-287 (C272S) [5] = target: T1, Pur-alpha 56-287 (C272S); assay: filter binding; protein 0-10 uM; 2.5 mM MgCl2; 100 mM NaCl, 10 mM HEPES pH 8.0, 2.5 mM MgCl2, 1 mM DTT; 0.5 nM labeled oligo, 0-10 uM protein, 20 min, room temperature; details: protein: recombinant; tags: GST removed by protease (tag cleaved); chain copies: 2; label: 5'-32P; single strand

B1: selenomethionine-substituted B. burgdorferi Pur-α 8–105 (L17M, F27M, I64M) (domain or fragment)
chain: ERGEVYSEKMFTESERTYFMNVKENRKGDYFLNIVESKRSPSGDFERHSIFVYEENMNEFESNLLKAIAVIKQKVSTGSVGSSARHNKGYGEYGERSK
modifications: selenomethionine-substituted (methionines introduced at positions 17, 27 and 64; no other methionines in this fragment)
notes: Expressed from the pGEX6p1 vector (BamHI/XhoI); Only amino acids 8 to 84 are visible in the electron density; also called SeMet; selenomethionine-derivatized protein; source: E. coli BL21, purified (glutathione column, protease cleavage, Q column, heparin column, size-exclusion chromatography)
stoichiometry N [1]: 2

B2: B. burgdorferi Pur-α 8–105 (domain or fragment, Borrelia burgdorferi B31, UniProt O51076-2 8-105, looked up)
chain: ERGEVYSEKLFTESERTYFFNVKENRKGDYFLNIVESKRSPSGDFERHSIFVYEENINEFESNLLKAIAVIKQKVSTGSVGSSARHNKGYGEYGERSK
notes: Pur-α (hypothetical protein BB0047) of Borrelia burgdorferi B31, 127-amino acid gene product, amino acids 8 to 105; Expressed from the pGEX6p1 vector (BamHI/XhoI); also called native protein; BB0047 fragment; source: E. coli BL21, purified (glutathione column, protease cleavage, Q column, heparin column, size-exclusion chromatography)
binding result [2]: binds

B3: hTel12 (ssDNA)
DNA: AGGGTTAGGGTT
Kd (Pur-alpha 56-287 (C272S) [3]): 411 ± 95 nM

B4: JCVupTAR (ssDNA)
DNA: GGAGGGGGAGGC
Kd (Pur-alpha 56-287 (C272S) [4]): 233 ± 36 nM

B5: Control (ssDNA)
DNA: CCTCCGCCTCCG
binding result (Pur-alpha 56-287 (C272S) [5]): no binding
